Laboratory results published in publication PMC7645262.

Molecular target: Bpa78-βarr1 with a 2xStrep tag at the C-terminus (bovine) (UniProt P17870)
Assay: cross-linking; Bpa78-βarr1-2xStrep in HEK293T cells irradiated with UV (365 nm) as intact cells, then isolated with Strep-Tactin XT (1 M NaCl, 1 M urea in the supernatant); product analysed by SDS-PAGE/blot, SEC (Superdex 200 Increase, 4°C, Buffer W), MALDI-TOF-MS and nano-HPLC/nano-ESI-Orbitrap-MS/MS

- stoichiometry N: 2
Substance: Bpa78-βarr1 with a 2xStrep tag at the C-terminus (from UniProt P17870 1-418) (natural protein)
